In US20230059690A1 (published 2023):

T1: cynomolgus monkey PSMA (cynomolgus monkey, UniProt A0A2K5VNZ0 44-750)
T1 chain: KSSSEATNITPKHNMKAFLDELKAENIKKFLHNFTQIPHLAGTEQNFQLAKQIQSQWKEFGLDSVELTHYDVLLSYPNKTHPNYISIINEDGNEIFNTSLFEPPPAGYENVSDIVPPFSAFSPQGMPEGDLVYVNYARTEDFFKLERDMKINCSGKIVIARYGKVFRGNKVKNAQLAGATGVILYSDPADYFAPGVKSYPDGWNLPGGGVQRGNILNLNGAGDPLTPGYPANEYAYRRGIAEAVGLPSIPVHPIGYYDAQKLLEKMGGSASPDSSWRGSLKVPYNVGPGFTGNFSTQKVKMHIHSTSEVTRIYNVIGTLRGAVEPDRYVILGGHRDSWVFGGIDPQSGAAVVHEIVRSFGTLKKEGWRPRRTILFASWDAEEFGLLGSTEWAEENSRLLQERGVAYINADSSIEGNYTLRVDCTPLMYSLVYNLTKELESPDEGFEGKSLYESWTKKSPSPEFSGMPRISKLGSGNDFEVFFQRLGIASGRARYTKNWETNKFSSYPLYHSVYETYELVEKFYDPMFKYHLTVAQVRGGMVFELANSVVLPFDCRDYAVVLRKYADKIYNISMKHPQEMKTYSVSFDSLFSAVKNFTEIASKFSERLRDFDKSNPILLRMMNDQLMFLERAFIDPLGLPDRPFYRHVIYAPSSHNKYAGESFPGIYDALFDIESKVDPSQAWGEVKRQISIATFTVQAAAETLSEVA


Experiments:
[1] = biological target: T2, human PSMA (human, UniProt Q04609 44-750); test: ELISA
[2] = biological target: T1, cynomolgus monkey PSMA; test: ELISA
[3] = biological target: T2, human PSMA; test: SPR
[4] = biological target: T1, cynomolgus monkey PSMA; test: SPR
[5] = biological target: T2, human PSMA; test: FACS; CHO-human PSMA cells
[6] = biological target: T1, cynomolgus monkey PSMA; test: FACS; CHO-cyno PSMA cells
[7] = biological target: T2, human PSMA; test: FACS; Rat1(e) hPSMA cells, lot RC6647
[8] = biological target: T2, human PSMA; test: FACS; Rat1(e) hPSMA cells, lot RC6589

T2 sequence (Q04609 44-750): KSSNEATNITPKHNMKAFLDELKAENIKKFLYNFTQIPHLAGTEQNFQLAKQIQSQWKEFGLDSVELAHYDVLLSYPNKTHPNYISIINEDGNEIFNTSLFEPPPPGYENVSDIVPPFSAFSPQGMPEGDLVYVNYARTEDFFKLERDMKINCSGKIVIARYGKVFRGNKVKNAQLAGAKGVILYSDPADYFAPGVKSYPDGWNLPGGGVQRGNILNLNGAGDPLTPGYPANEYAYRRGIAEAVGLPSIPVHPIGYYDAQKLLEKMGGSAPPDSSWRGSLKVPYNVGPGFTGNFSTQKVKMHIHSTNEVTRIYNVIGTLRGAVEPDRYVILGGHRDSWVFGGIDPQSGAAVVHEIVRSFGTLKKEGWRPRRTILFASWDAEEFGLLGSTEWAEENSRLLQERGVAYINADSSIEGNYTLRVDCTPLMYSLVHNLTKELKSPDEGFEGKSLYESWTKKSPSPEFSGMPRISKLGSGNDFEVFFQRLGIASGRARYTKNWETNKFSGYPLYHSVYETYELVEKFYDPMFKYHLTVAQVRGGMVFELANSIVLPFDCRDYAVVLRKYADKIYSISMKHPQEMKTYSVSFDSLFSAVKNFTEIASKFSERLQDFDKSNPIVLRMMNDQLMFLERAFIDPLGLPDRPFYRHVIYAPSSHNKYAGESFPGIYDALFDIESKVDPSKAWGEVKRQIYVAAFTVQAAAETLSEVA

Binder	Kd [1] [nM]	Kd [2] [nM]	Kd [3] [nM]	Kd [4] [nM]	Kd [5] [nM]	Kd [6] [nM]	Kd [7] [nM]	Kd [8] [nM]
cHv75-2a11.G1(L328C)k (antibody, V domains shown) VH: QVQLVESGGGVVQPGRSLRLSCAASGFTFSSYDMHWVRQAPGKGLEWVAVIWYDGSNKYYADSLKGRFTISRDNSKNTLYLQMNSLRAEDTAVYYCARVIAARTFYYYGMDVWGQGTTVTVSS VL: not shown	0.138	0.104	59	47	0.709	0.431	0.761	–
cHv75-2a7.G1(C99Y;L328C)k (antibody, V domains shown) VH: EVQLVESGGGLVQPGGSLRLSCAASGITFSNYWMSWVRQAPGKGLEWVANIKKDGSEKFYVDSVKGRFTISRDNAKNSLYLQINSLRAEDTAMYYCAREIQLYLQHWGQGTLVTVSS VL: DIQMTQSPSSVSASVGGRVTITCRASQGISNWLAWYQQKPGKAPKLLIYAASSLQSGVPSRFSGSGSGTDFTLTISNLQPEDFASYYCQQANSFPLTFGGGTKVEIKR	0.074	0.063	11	36	0.094	0.166	–	0.205
